Laboratory results reported in paper PMC10613254 (2023).

B1: Cort_(1-33) (domain or fragment)
chain: MWKASAGHAVSITQDDGGADDWETDPDFVNDVS
B2: Cort_(18-76) (domain or fragment)
chain: GADDWETDPDFVNDVSEKEQRWGAKTVQGSGHQEHINIHKLRENVFQEHQTLKEKELET
B3: Cort_(1-76), cortactin N-terminal acidic domain (NTA, residues 1-76) (domain or fragment)
chain: MWKASAGHAVSITQDDGGADDWETDPDFVNDVSEKEQRWGAKTVQGSGHQEHINIHKLRENVFQEHQTLKEKELET

Each binder was assayed against bovine brain Arp2/3 complex (bovine, UniProt P61157 1-418; A7MB62 1-394; Q58CQ2 1-372; Q3MHR7 1-300; Q3T035 1-178; Q148J6 …) (assay: ITC).

Going from B1 to B2, the Kd falls from 5.4 µM to 2.2 µM (2.5-fold). The second binds more tightly here.

Work on B3 yielded a Kd of 4.5 µM.
